Experimental data as given in CN114605551A.

Tests used:
CA24-2人腹水 [1] = test: ELISA OD450/630, antibody 125 ng/ml captured on goat anti-mouse IgG, CA24-2 human ascites, HRP-labelled same antibody
CA24-2人腹水 [2] = test: ELISA OD450/630, antibody 31.25 ng/ml captured on goat anti-mouse IgG, CA24-2 human ascites, HRP-labelled same antibody
CA24-2人腹水 [3] = test: ELISA OD450/630: supernatant of transiently transfected CHO cells diluted 1000-fold, captured on goat anti-mouse IgG, CA24-2 human ascites, HRP-anti-CA24-2 detection; wells without supernatant OD <0.1
CA24-2人腹水 [4] = test: ELISA OD450/630, antibody 0 ng/ml (blank well), CA24-2 human ascites, HRP-labelled same antibody
CA24-2人腹水 [5] = test: ELISA OD450/630, antibody 7.813 ng/ml captured on goat anti-mouse IgG, CA24-2 human ascites, HRP-labelled same antibody
CA24-2人腹水 [6] = test: ELISA OD450/630, antibody 62.5 ng/ml captured on goat anti-mouse IgG, CA24-2 human ascites, HRP-labelled same antibody
CA24-2人腹水 [7] = test: ELISA OD450/630, antibody 15.625 ng/ml captured on goat anti-mouse IgG, CA24-2 human ascites, HRP-labelled same antibody

B1: 实施例1的抗CA24-2抗体(WT) (antibody, mouse IgG1, kappa, V domains shown)
VH: EVKLVESGGGLVQPGGSLRLTCATSAFTFSDYYMEWVRQPPGKALEWLGFIRKKADGYTTEYSASIKGRFTISRDDSQNILYLQMNTLRAEDSATYYCARGISTATGVAYWGQGTLVTVSA
VL: DIVMTQSPSSLALSVGQKVTMSCKSSQSIVNTSNQKNYLAWYQQKPGQSPKLLVYWASTRETGVPDRFIGSGSGTDFTLAISSVQAEDLADYYCQQHYSVPFTFGSGTKLEIKR
OD450 (CA24-2人腹水 [1]): 1.63 OD
OD450 (CA24-2人腹水 [2]): 0.734 OD
OD450 (CA24-2人腹水 [3]): > 1 OD
OD450 (CA24-2人腹水 [4]): 0.052 OD
OD450 (CA24-2人腹水 [5]): 0.246 OD
OD450 (CA24-2人腹水 [6]): 1.46 OD
OD450 (CA24-2人腹水 [7]): 0.329 OD
